Measured values from IntAct's records for PubMed 20498078.

Tests used:
pcd15_mouse Pcdh15 = pcd15_mouse Pcdh15 (UniProt Q99PJ1)
pcd15_mouse Pcdh15, sequence (Q99PJ1 whole entry): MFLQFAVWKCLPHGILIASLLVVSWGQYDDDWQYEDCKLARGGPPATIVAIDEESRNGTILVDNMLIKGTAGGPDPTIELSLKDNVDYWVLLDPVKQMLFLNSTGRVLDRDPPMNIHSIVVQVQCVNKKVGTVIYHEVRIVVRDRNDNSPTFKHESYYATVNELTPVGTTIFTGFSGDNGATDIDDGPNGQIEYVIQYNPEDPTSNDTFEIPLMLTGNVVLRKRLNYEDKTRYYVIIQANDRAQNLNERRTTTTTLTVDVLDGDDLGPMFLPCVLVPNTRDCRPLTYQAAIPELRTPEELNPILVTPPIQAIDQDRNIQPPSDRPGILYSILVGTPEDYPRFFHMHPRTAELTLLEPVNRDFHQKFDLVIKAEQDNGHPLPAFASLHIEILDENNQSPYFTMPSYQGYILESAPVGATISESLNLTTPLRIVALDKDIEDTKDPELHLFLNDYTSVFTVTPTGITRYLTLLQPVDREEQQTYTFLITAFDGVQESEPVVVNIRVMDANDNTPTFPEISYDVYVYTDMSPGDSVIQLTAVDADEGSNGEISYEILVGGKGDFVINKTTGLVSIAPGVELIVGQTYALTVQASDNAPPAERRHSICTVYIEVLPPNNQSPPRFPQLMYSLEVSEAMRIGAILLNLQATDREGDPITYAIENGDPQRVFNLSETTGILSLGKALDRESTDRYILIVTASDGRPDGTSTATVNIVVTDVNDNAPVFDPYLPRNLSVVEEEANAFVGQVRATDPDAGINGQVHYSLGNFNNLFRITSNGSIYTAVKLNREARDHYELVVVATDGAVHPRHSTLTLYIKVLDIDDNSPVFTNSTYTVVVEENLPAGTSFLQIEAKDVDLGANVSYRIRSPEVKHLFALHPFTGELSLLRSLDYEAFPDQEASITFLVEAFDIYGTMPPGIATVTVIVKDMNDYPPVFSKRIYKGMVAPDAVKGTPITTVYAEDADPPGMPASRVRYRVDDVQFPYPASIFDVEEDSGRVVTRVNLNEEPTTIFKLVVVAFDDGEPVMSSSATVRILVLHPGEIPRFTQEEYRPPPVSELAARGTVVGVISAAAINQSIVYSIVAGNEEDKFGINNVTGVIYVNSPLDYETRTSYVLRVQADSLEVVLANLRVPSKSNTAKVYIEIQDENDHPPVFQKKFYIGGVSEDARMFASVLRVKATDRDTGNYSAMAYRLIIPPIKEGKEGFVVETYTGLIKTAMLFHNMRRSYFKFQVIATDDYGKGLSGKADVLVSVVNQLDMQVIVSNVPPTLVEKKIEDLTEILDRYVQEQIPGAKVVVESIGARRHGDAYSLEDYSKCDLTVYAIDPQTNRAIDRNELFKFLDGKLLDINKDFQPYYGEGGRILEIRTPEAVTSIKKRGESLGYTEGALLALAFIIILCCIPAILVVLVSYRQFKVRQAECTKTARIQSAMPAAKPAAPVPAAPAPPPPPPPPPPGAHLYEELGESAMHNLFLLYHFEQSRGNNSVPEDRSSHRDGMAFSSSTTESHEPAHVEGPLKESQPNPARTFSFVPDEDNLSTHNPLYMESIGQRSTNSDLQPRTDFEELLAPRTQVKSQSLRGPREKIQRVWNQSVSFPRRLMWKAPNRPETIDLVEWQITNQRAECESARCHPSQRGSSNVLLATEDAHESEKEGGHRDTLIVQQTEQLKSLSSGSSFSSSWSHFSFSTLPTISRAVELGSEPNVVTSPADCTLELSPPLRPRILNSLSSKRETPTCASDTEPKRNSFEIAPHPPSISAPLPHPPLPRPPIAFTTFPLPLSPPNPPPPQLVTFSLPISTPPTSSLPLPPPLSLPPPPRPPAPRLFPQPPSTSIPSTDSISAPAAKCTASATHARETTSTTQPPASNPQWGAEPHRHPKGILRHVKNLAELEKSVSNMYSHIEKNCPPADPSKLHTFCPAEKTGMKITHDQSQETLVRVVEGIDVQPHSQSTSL

Substance	effect of a mutation on the interaction (pcd15_mouse Pcdh15)	effect of a mutation on the interaction (Cdh23, Q99PF4-1)
Cadherin-23 (Mus musculus), Q99PF4-1 N26I	decreasing interaction	
Cadherin-23 (Mus musculus), Q99PF4-1 N26I;R27I	decreasing interaction	
Protocadherin-15 (Mus musculus), Q99PJ1 E35I;D36A		decreasing interaction
Cadherin-23 (Mus musculus), Q99PF4-1 R27I	decreasing interaction	
